Measured values as given in publication PMC12487888, “Molecular basis of the biogenesis of a protein organelle for ethanolamine utilization” (Science Advances, 2025).
Residue numbers refer to the chain shown, from its start.

T1: EutQ-strep (S. Typhimurium LT2, UniProt Q9ZFV5 1-229)
T1 construct: EutQ of S. Typhimurium LT2; the eutQ gene was inserted into pET-22b (+); source: E. coli BL21(DE3), purified (Strep-tag XT, gel filtration); not shown: Strep tag, C-terminal, kept
T1 sequence: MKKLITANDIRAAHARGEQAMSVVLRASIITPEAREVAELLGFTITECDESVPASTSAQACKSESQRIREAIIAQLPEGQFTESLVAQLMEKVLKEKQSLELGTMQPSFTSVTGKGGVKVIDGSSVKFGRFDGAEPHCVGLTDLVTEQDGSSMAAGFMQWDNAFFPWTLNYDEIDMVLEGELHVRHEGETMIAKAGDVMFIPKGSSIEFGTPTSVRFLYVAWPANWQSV

T2: EutQ (residues 1 to 229) (S. Typhimurium LT2, UniProt Q9ZFV5 1-229)
T2 construct: About 25 kDa per monomer, about 50 kDa dimer by SEC-MALS; Uniformly 15N-labelled for NMR; also called full-length EutQ; WT EutQ; source: E. coli BL21 (DE3) star, purified (His-trap, SEC on S200 Superdex)
T2 sequence: T1 sequence

T3: EutQ N-terminal domain fused with GB1 at its C terminus (EutQ^1–99-GB1) (S. Typhimurium LT2, UniProt Q9ZFV5 1-99)
T3 construct: EutQ of S. Typhimurium LT2, N-terminal region, residues 1-99 (helices H1 to H4); Cloned into pETM11; Order of the chain: EutQ 1-99, hexahistidine tag, GB1; Uniformly 15N-labelled (15N, 13C for assignment) for NMR; also called N-terminal region of EutQ; source: E. coli BL21 (DE3) star, purified (His-trap, SEC on S200 Superdex)
T3 sequence: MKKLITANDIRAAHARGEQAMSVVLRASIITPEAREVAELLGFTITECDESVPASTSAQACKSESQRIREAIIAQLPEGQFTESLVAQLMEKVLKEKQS

T4: EutQ Q75A (S. Typhimurium LT2, UniProt Q9ZFV5 1-229, Q75A)
T4 construct: EutQ of S. Typhimurium LT2 with the point mutation Q75A; also called Q75A mutant
T4 sequence: T1 sequence with Q75A

T5: EutQ-his (S. Typhimurium LT2, UniProt Q9ZFV5 1-229, dye on the His tag (His-tagged target proteins were labelled with dyes))
T5 construct: EutQ of S. Typhimurium LT2; the eutQ gene was inserted into pET-22b (+); source: E. coli BL21(DE3), purified (Ni-NTA, gel filtration); not shown: His tag, C-terminal, kept
T5 sequence (looked up): T1 sequence

B1: EutM-his (natural protein)
chain: MEALGMIETRGLVALIEASDAMVKAARVKLVGVKQIGGGLCTAMVRGDVAACKAATDAGAAAAQRIGELVSVHVIPRPHGDLEEVFPISFKGDSNI
modifications: dye on the His tag (His-tagged target proteins were labelled with dyes)
notes: shell protein EutM of S. Typhimurium LT2; the eutM gene was inserted into pET-22b (+); source: E. coli BL21(DE3), purified (Ni-NTA, gel filtration); not shown: His tag, C-terminal, kept
B2: EutC^1–20 encapsulation peptide (peptide)
peptide: MDQKQIEEIVRSVMASMGQD
notes: EutC of S. Typhimurium LT2, N-terminal encapsulation peptide, residues 1-20; also called EutC peptide; EP of EutC; source: synthetic peptide (GenicBio)
B3: EutL-strep (natural protein, S. Typhimurium LT2, UniProt P0A1C9 1-219, looked up)
chain: MPALDLIRPSVTAMRVIASVNDGFARELKLPPHIRSLGLITADSDDVTYIAADEATKQAMVEVVYGRSLYAGAAHGPSPTAGEVLIMLGGPNPAEVRAGLDAMVASIENGAAFQWANDAENTAFLAHVVSRTGSYLSSTAGIALGDPMAYLVAPPLEATFGIDAAMKSADVQLVTYVPPPSETNYSAAFLTGSQAACKAACNAFTDAVLDIARNPVQRA
notes: shell protein EutL of S. Typhimurium LT2; the eutL gene was inserted into pET-22b (+); not shown: Strep tag, C-terminal, kept

Experiments:
Details in all cases: both partners purified
[1] = target: B3; test: MST; His-tagged target protein labelled with dye, 0.25 μM; unlabelled strep-tagged protein in twofold dilution series (EutL up to 24 μM, EutQ up to 108 μM); Monolith NT.115, 25°C, 60% excitation power
[2] = target: T1, EutQ-strep; test: as above
[3] = target: T2, EutQ (residues 1 to 229); test: ITC; 20 μM protein in the cell, 200 to 400 μM peptide in the syringe; 19 injections, 25°C; 20 mM Na2HPO4, 20 mM NaCl, pH 6.5
[4] = target: T3, EutQ N-terminal domain fused with GB1 …; test: as above
[5] = target: T4, EutQ Q75A; test: ITC; point mutants of EutQ against EutC^1–20 (figs. S25 and S26); the method is not given, the Kd is compared with the ITC Kd of WT EutQ
[6] = target: T5, EutQ-his; test: MST; His-tagged target protein labelled with dye, 0.25 μM; unlabelled strep-tagged protein in twofold dilution series (EutL up to 24 μM, EutQ up to 108 μM); Monolith NT.115, 25°C, 60% excitation power

Q: Does B1 bind [1]?
A: Result: binds

Q: Does B1 bind [2]?
A: Result: binds

Q: With B2 as the binder, how does the Kd [3] read?
A: Its Kd is 6.35 µM.

Q: And the dH [3]?
A: Its dH is -9.24 ± 0.01 kcal/mol.

Q: And the “stoichiometry N” value [3]?
A: Its value is about 2.

Q: And the Kd [4]?
A: The Kd was 7.6 µM.

Q: What about the dH [4] of the same binder?
A: The dH was -9.63 ± 0.48 kcal/mol.

Q: And the “stoichiometry N” value [4]?
A: Its value is about 1.

Q: And the Kd [5]?
A: The Kd was 21.5 µM.

Q: Does B3 bind [6]?
A: Result: binds
